For one molecule, EC50, Kd and IC50 results are on record in patent publication US20230331852A1 (OSE IMMUNOTHERAPEUTICS, published 2023).

The target of experiment [1] is T1, human CLEC-1A expressed on the cell membrane (human, UniProt Q8NC01 1-280).
T1 construct: Endogenous on human U266 myeloma cells, on monocyte-derived TGFb-DC and macrophages; on CHO cells after transduction with a Clec-1 expressing lentivirus; also called U266 CLEC1; CLEC-1A on U266 cells
T1 sequence: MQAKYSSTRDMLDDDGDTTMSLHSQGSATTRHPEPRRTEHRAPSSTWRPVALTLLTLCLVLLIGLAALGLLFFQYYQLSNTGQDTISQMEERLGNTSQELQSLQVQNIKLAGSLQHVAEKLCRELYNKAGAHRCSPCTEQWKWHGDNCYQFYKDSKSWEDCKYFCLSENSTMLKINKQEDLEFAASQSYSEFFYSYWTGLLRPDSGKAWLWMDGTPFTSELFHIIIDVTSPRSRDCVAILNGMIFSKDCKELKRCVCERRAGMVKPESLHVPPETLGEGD
Put plainly: flow cytometry on CHO-Clec-1 cells (from FIGURE 21). Here is the method: To measure binding of anti-clec on CHO-Clec-1 cells, human Fc Receptor Binding Inhibitor diluted at 1/200 (BD pharmingen; USA; reference 564220) was first added for 30 min at room-temperature to block human Fc receptors on CHO-Clec-1 cells to reduce background. Then, antibodies were incubated for 30 min at 4° C., and washed before stained 15 min at 4° C. with PE-labelled anti-human IgG Fc (Biolegend; USA; reference 409303). Samples were analyzed on citoflex (Beckman coulter)

Experiment [2] addresses T2, recombinant human CLEC-1 protein with His Tag (#1704-CL R&D Systems) (human, UniProt Q8NC01 74-280).
T2 construct: Bought protein; also called His-CLEC1; His Clec-1; not shown: His tag
T2 sequence: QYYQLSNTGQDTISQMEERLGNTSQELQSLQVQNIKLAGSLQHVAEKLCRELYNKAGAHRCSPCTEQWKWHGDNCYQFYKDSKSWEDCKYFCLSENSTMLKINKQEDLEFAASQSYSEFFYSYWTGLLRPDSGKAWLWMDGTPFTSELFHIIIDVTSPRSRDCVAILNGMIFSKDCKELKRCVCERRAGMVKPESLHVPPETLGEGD
Put plainly: BLI (Blitz), CLEC1-His on Ni-NTA biosensor, antibody at 20 ug/mL; chimeric antibody, FIG. 17. Here is the method: Analysis was performed with a BLItz System (Fortébio, #C22-2 No 61010-1, Molecular Devices, San José, USA).
The affinity of the anti-hCLEC1 antibodies, was measured with Blitz system (Forté Bio, C22-2 No 61010-1).

Experiment [3] has as its target T3, Fc-CLEC1 labelled with Alexa Fluor 488 (human, Alexa Fluor 488 label (sites not given)).
T3 construct: also called Fc-CLEC1-A488; Alexa488-Fc-Clec-1
T3 chain: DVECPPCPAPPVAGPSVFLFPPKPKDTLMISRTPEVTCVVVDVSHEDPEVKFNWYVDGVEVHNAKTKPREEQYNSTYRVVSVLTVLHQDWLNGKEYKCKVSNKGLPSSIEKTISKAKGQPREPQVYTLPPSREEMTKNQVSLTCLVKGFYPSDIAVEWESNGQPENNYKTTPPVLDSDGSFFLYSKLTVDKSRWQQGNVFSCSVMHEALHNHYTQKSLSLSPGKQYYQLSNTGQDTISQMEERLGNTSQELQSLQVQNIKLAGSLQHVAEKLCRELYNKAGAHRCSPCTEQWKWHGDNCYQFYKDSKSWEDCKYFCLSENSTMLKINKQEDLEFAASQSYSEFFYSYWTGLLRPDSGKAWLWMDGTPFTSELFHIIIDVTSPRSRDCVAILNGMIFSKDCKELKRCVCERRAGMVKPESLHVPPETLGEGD
Put plainly: FACS competition: blocks Fc-CLEC1-A488 (10 nM) binding to CLEC-1 ligand on permeabilised Raji cells; IC50 median. As for the experimental part:
To measure competition, purified anti-Clec antibodies at different concentrations were pre-incubated in Perm Wash Buffer with Alexa488-Fc-Clec-1 for 15 min at room temperature. Pre-incubated mixes were then incubated on permeabilized and Fc-blocked Raji cells for 30 min on ice. Binding on cells were then fixed by PFA 2% in cold PBS for 10 min on ice and analyzed on CytoFlex cytofluorometer (Beckman Coulter France, Villepinte).
Methods. To measure competition on permeabilised Raji (CytoFix/cytoperm kit, BD Biosciences) which expressed CLEC1 ligand, Fc-CLEC1-labelled A488 which bound specifically to permeabilised Raji was used. To measure competition, Fc-CLEC1 labelled A488 at 10 nM or 20 nM was mixed with mouse anti-hCLEC1 at different concentrations for 15 min at RT then added on these cells for 30 min at 4° C. […] To measure competition on PMBC, we used human PBMC pre-treated by UV for 18 h to obtain apoptotic PBMC, which expressed CLEC1 ligand. Fc-CLEC1-labelled A488 bound specifically apoptotic UV-treated PBMC. To measure competition, Fc-CLEC1 labelled A488 at 10 nM was mixed with mouse anti-hCLEC1 at different concentrations for 15 min at RT then added on these cells for 30 min at 4° C.

B1: chimeric anti-CLEC-1A antibody 14H9 (antibody, human IgG4 S228P, kappa, V domains shown)
VH: QVQLKESGPGLVAPSQSLSITCTISGFSLTTYGIHWVRQPPGKGLEWLVVIWSDGSTIYNSALKSRLSISKDNSKSQVFLKMNSLQTDDTAIYYCARHGGYYNYFDYWGQGTTLTVSS
VL: DIQMNQSPSSLSASLGDTITITCHASQNINVWLSWYQQKPGNIPKLLIYKASNLHTGVPSRFSGSGSGTTFTLTIDSLQPEDIATYYCQQGQSYWTFGGGTKLEIKR
notes: also called 14H9chim; 14H9-VHwt-FcG4m / 14H9-VLwt-CLhk
As to B1, the EC50 in experiment [1] came out at 0.895 µg/mL. Moreover, the Kd in experiment [2] was around 10 nM. This molecule also gave an IC50 in experiment [3] of 3.9 nM.

As a reminder, the EC50 is the concentration that produces a half-maximal response. By Kd is commonly meant the free concentration of one partner at which half of the binding sites on the other are occupied at equilibrium, for simple one-to-one binding. As a reminder, the IC50 is the point on the concentration scale where inhibition reaches its midpoint. Lower therefore signals greater potency in that assay.
